Paper PMC5796892

Experiments:
[1] = target: MBL-associated serine protease 2 (MASP2), serum-derived (human (endogenous in normal human serum))
[2] = target: serum-derived MBL-associated serine proteases (MASPs) (human (endogenous in normal human serum)); experiment: ELISA; normal human serum diluted 1:10 in veronal buffer saline bound to mannan-coated plate (37°C, 2 h), washed; rLdISP1/rLdISP2 0-50 µM added, 37°C, 2 h; bound ISP detected with anti-ISP1 or anti-ISP2 antibody
[3] = target: C1 complex (C1qr2s2) (human) (UniProt P02745); experiment: ELISA; C1 complex at 25 µg/ml bound to human IgM-coated plate (37°C, 2 h); rLdISP1/rLdISP2 0-50 µM added, 37°C, 2 h; bound ISP detected with anti-ISP1 or anti-ISP2 antibody; Kd taken as the free ligand at half saturation
[4] = target: C1 complex (C1qr2s2) (human) (UniProt P02745); experiment: ELISA; C1 complex at 12.5 µg/ml bound to human IgM-coated plate (37°C, 2 h); rLdISP1/rLdISP2 0-50 µM added, 37°C, 2 h; bound ISP detected with anti-ISP1 or anti-ISP2 antibody; Kd taken as the free ligand at half saturation
[5] = target: C1 complex (C1qr2s2) (human) (UniProt P02745); experiment: ELISA; C1 complex at 50 µg/ml bound to human IgM-coated plate (37°C, 2 h); rLdISP1/rLdISP2 0-50 µM added, 37°C, 2 h; bound ISP detected with anti-ISP1 or anti-ISP2 antibody; Kd taken as the free ligand at half saturation
[6] = target: C1 complex (C1qr2s2) (human) (UniProt P02745); experiment: ELISA; C1 complex at 6.25 µg/ml bound to human IgM-coated plate (37°C, 2 h); rLdISP1/rLdISP2 0-50 µM added, 37°C, 2 h; bound ISP detected with anti-ISP1 or anti-ISP2 antibody; Kd taken as the free ligand at half saturation
[7] = target: neutrophil elastase (NE) from human leukocytes (human) (UniProt P08246)
[8] = target: serum-derived MBL-associated serine proteases (MASPs) (human (endogenous in normal human serum)); experiment: ELISA; normal human serum diluted 1:100 in veronal buffer saline bound to mannan-coated plate (37°C, 2 h), washed; rLdISP1/rLdISP2 0-50 µM added, 37°C, 2 h; bound ISP detected with anti-ISP1 or anti-ISP2 antibody
[9] = target: C1 complex (C1qr2s2) (human) (UniProt P02745); experiment: ELISA; C1 complex at 100 µg/ml bound to human IgM-coated plate (37°C, 2 h); rLdISP1/rLdISP2 0-50 µM added, 37°C, 2 h; bound ISP detected with anti-ISP1 or anti-ISP2 antibody; Kd taken as the free ligand at half saturation
[10] = target: MBL-associated serine protease 2 (MASP2), serum-derived (human (endogenous in normal human serum)); remark: listed apart in the source
[11] = target: MBL-associated serine protease 2 (MASP2), serum-derived (human (endogenous in normal human serum)); remark: listed apart in the source
[12] = target: MBL-associated serine protease 2 (MASP2), serum-derived (human (endogenous in normal human serum)); remark: listed apart in the source
[13] = target: C1 complex (C1qr2s2) (human) (UniProt P02745); experiment: ELISA; C1 complex at 100 µg/ml bound to human IgM-coated plate (37°C, 2 h); rLdISP1/rLdISP2 0-50 µM added, 37°C, 2 h; bound ISP detected with anti-ISP1 or anti-ISP2 antibody; Kd taken as the free ligand at half saturation; remark: listed apart in the source
[14] = target: serum-derived MBL-associated serine proteases (MASPs) (human (endogenous in normal human serum)); experiment: ELISA; normal human serum diluted 1:50 in veronal buffer saline bound to mannan-coated plate (37°C, 2 h), washed; rLdISP1/rLdISP2 0-50 µM added, 37°C, 2 h; bound ISP detected with anti-ISP1 or anti-ISP2 antibody

neutrophil elastase (NE) from human leukocytes (human), sequence (P08246 30-267): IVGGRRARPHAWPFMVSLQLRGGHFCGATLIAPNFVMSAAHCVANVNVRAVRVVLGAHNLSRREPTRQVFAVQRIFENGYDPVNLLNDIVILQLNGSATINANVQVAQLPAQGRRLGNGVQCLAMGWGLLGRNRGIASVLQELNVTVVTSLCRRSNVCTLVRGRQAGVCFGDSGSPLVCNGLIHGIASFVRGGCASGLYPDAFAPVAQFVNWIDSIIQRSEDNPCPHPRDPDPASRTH

Question: “recombinant L. donovani inhibitor of serine peptidases 2 (natural protein)” was tested. Which C3 convertase (C3c) formation by all complement pathways in human serum with promastigotes, fold reduction at 10 and 50 µM rLdISP2 (~1.5, ~2.5-fold) [1] did it give?
Answer: 2.5 fold

Question: And the C3 convertase (C3c) formation by the lectin pathway (lectin pathway-specific serum), fold reduction at 10 and 50 µM rLdISP2 (~2, ~4-fold) [1]?
Answer: 4 fold

Question: And the C5 convertase (C5c) formation by all three pathways, fold reduction at 10 and 50 µM rLdISP2 (~1.5, ~2.9-fold) [1]?
Answer: 2.9 fold

Question: What about the C5 convertase (C5c) formation by the lectin pathway, fold reduction at 10 and 50 µM rLdISP2 (~1.4, ~3.2-fold) [1] of the same substance?
Answer: 3.2 fold

Question: What about the Ka [2] of the same substance?
Answer: 830000 M⁻¹

Question: And the Kd [2]?
Answer: 1.2 µM

Question: What about the Ka [3] of the same substance?
Answer: 350000 M⁻¹

Question: What about the Kd [3] of the same substance?
Answer: 3 µM

Question: And the Ka [4]?
Answer: 310000 M⁻¹

Question: What about the Kd [4] of the same substance?
Answer: 3.2 µM

Question: And the Ka [5]?
Answer: 500000 M⁻¹

Question: And the Kd [5]?
Answer: 2 µM

Question: And the Ka [6]?
Answer: 280000 M⁻¹

Question: And the Kd [6]?
Answer: 3.5 µM

Question: And the C5aR expression (western blot) in macrophages treated with NE pre-incubated with 10 µM rLdISP2, fold increase against control [7]?
Answer: 2.5 fold

Question: And the enzyme activity of NE (50 nM; substrate N-methoxysuccinyl-Ala-Ala-Pro-Val-AMC), reduction at 0.1, 1 and 10 µM rLdISP2 (~49, ~60, ~82%) [7]?
Answer: 82%

Question: What about the Ka [8] of the same substance?
Answer: 330000 M⁻¹

Question: What about the Kd [8] of the same substance?
Answer: 3 µM

Question: What about the Ka [9] of the same substance?
Answer: 760000 M⁻¹

Question: What about the Kd [9] of the same substance?
Answer: 1.3 µM

Question: And the MAC (C5b-9) formation on promastigotes via the lectin pathway, fold decrease against active LPSS at 10 and 50 µM rLdISP2 (~1.5, ~2.3-fold) [10]?
Answer: 2.3 fold

Question: And the complement-mediated lysis of promastigotes via the lectin pathway, fold reduction at 10 and 50 µM rLdISP2 (~1.8, ~2.5-fold) [10]?
Answer: 2.5 fold

Question: And the C4b formation (C4 cleavage by serum-derived MASPs on mannan plate, sandwich ELISA), fold decrease against control at 10 and 50 µM rLdISP2 (~2.1, ~2.9-fold) [11]?
Answer: 2.9 fold

Question: What about the enzyme activity of serum-derived MASP2 (substrate Z-L-Lys-SBzl with DTNB), reduction against untreated serum at 5, 10 and 50 µM rLdISP2 (~30, ~44, ~60%) [12] of the same substance?
Answer: 60%

Question: And the Kd [13]?
Answer: 1.6 µM

Question: And the Ka [14]?
Answer: 520000 M⁻¹

Question: What about the Kd [14] of the same substance?
Answer: 1.9 µM

Question: What does the source list for “recombinant Leishmania donovani inhibitor of serine peptidases 1 (natural protein)”?
Answer: Ka [2]: 710000 M⁻¹; Kd [2]: 1.4 µM; enzyme activity of NE (50 nM; substrate N-methoxysuccinyl-Ala-Ala-Pro-Val-AMC), inhibition at 10 µM rLdISP1 [7]: 27%; Ka [8]: 310000 M⁻¹; Kd [8]: 3.2 µM; Ka [14]: 450000 M⁻¹; Kd [14]: 2.2 µM
